{"source": "paper PMC3575409", "about": "“Identification of a Novel Protein-Protein Interaction Motif Mediating Interaction of GPCR-Associated Sorting Proteins with G Protein-Coupled Receptors” (PLoS ONE, 2013)", "molecules": {"B1": {"name": "central domain of GASP-1: central portion of GASP-1 (AA 380 to 1073) that contains 19 GASP motif (protein)", "chain": "MTKEEAKTKARARAKQEARSEEEALIGTWFWATDESSMADEASIESSLQVEDESIIGSWFWTEEEASMGTGASSKSRPRTDGERIGDSLFGAREKTSMKTGAEATSESILAADDEQVIIGSWFWAGEEVNQEAEEETIFGSWFWVIDAASVESGVGVSCESRTRSEEEEVIGPWFWSGEQVDIEAGIGEEARPGAEEETIFGSWFWAENQTYMDCRAETSCDTMQGAEEEEPIIGSWFWTRVEACVEGDVNSKSSLEDKEEAMIPCFGAKEEVSMKHGTGVRCRFMAGAEETNNKSCFWAEKEPCMYPAGGGSWKSRPEEEEDIVNSWFWSRKYTKPEAIIGSWLWATEESNIDGTGEKAKLLTEEETIINSWFWKEDEAISEATDREESRPEAEEGDIIGSWFWAGEEDRLEPAAETREEDRLAAEKEGIVGSWFGAREETIRREAGSCSKSSPKAEEEEVIIGSWFWEEEASPEAVAGVGFESKPGTEEEEITVGSWFWPEEEASIQAGSQAVEEMESETEEETIFGSWFWDGKEVSEEAGPCCVSKPEDDEEMIVESWFWSRDKAIKETGTVATCESKPENEEGAIVGSWFEAEDEVDNRTDNGSNCGSRTLADEDEAIVGSWFWAGDEAHFESNPSPVFRAICRSTCSVEQEPDPSRRPQSWEEVTVQFKPGPWGRVGFPSISPFRFPKE", "modifications": "left off: GST, N-terminal, kept", "notes": "central portion of GASP-1 (AA 380 to 1073) that contains 19 GASP motif"}}, "test_system": "MyrPalm-mYFP in HEK293 cells", "experiment": "Co-immunoprecipitation, MyrPalm-mYFP (negative control)", "type": "cell-based", "conditions": "48 h expression, anti-GFP immunoprecipitation", "protocol": "HEK293 cells stably expressing N-terminal GFP-tagged ADRB1, ADRB2, CALCR and M1 or MyrPalm-mYFP were transfected with pcDNA3.1 containing the sequence for a central domain of GASP-1 (AA 380 to 1073) using JetPEI reagent (polyplus transfection) according to the instructions from the manufacturer. After 48 h of expression, cells were washed twice with PBS and lysed in a buffer containing 10 mM Tris-HCl, pH 7.4, 150 mM NaCl, 25 mM KCl, 0.3% Triton X-100 and cOmplete protease inhibitors (Roche) for 1 h at 4°C under agitation. 500 µg of cleared lysates were incubated with 1 µg of a mouse monoclonal anti-GFP antibody (Invitrogen) overnight at 4°C, followed by an incubation with 40 µl of protein A-Sepharose beads for an additional 2 h at 4°C. Beads were then washed five times in lysis buffer and precipitates were resolved on an 8% gel by SDS–PAGE and electrotransferred to immobilon-P membranes (Millipore) in 50 mM Tris-boric acid for 1 h at 300 mA. Membranes were blocked with 5% non-fat powder milk in TBS-Tween (50 mM Tris-HCl pH 8, 150 mM NaCl, 0.4% Tween-20) for 1 h at room temperature. […] For immunodetection of GASP or GFP-tagged receptors directly from cell lysates, 10 µg of proteins were loaded on SDS gels and analyzed following the procedure described above. Finally, membranes were washed in TBS-Tween and detected by chemiluminescence (ECL prime, GE Healthcare). […]", "data": [{"molecule": "B1", "values": [{"measurement": "co-immunoprecipitation with MyrPalm-mYFP", "value": "no co-immunoprecipation was observed"}]}]}
